In US11091559B2, “Anti-ALK antibodies and methods for use thereof” (Celldex Therapeutics, Inc., priority 2015, dated 2021):
Numbering of substitutions follows the chain as printed.

B1: Ab323: anti-ALK monoclonal antibody; VL SEQ ID NO: 401, VH SEQ ID NO: 402 (antibody, V domains shown)
VH: QVQLQQSGAELVKPGASVKISCKTSGYTFSNYWMNWVKQRPGKGLEWIGQIFPGDADANYNGKFKGKATLTADKSSSAAFMQLSSLTSEDSAVYFCARFSYDGAFAYWGQGTLVTVS
VL: DIVMTQSHKFMSTSVGDRVSITCKASQDVSTAVAWYQQKPGQSPKPLIYWASTRHTGVPDRFTGSGSGTDYTLTISSVQTEDLALYYCQQHYSTPRTFGGGTKLEIKR
modifications: VH domain - Ab323; VL domain - Ab323
B2: Ab400: humanized anti-ALK antibody; VL SEQ ID NO: 425, VH SEQ ID NO: 430 (antibody, V domains shown)
VH: EVQLVQSGPEVKKPGTSVKLSCKASGYTFTSYWMHWVRQARGQRLEWIGYIKPSSGYTKYNQKFKDRATLTADKSTSTAYMELSSLRSEDTAVYYCARDYYGSSSWFAYWGQGTLVTVSS
VL: EIVMTQSQATMSTSVGERATLSCKASQNVGTNVAWYQQKPGQSPKALIYSASYRYSGVPARFSGSGSGTDFTLTISSVEPEDFAVYYCQQYNSYPYMYTFGQGTKLEIK
modifications: VH domain - Ab352; VL domain - Ab399
B3: Ab403: humanized anti-ALK antibody; VL SEQ ID NO: 425, VH SEQ ID NO: 433 (antibody, V domains shown)
VH: B2 VH with E1Q, P9A, K12A, T16A, R38K, R41P, R44G, R67K, S84R, E89D
VL: B2 VL
modifications: VH domain - Ab355; VL domain - Ab399
B4: Ab402: humanized anti-ALK antibody; VL SEQ ID NO: 425, VH SEQ ID NO: 432 (antibody, V domains shown)
VH: B2 VH with P9A, N61A, K65Q, D66E, A68V
VL: B2 VL
modifications: VH domain - Ab354; VL domain - Ab399
B5: Ab326: anti-ALK monoclonal antibody; VL SEQ ID NO: 407, VH SEQ ID NO: 408 (antibody, V domains shown)
VH: QVQLQQSGAELAKPGASVKLSCKASGYTFTSYWMHWVKQRPGQGLEWIGYIKPSSGYTKYNQKFKDKATLTADKSSSTAYMQLSSLTYEDSAVYYCARDYYGSSSWFAYWGQGTLVTVSA
VL: DIVMTQSQRFMSTSVGDRVSVTCKASQNVGTNVAWYQQKPGQSPKALIYSASYRYSGVPDRFTGSGSGTDFTLTISNVQSEDLAEYFCQQYNSYPYMYTFGGGTKLEIKR
modifications: VH domain - Ab326; VL domain - Ab326
B6: Ab327: anti-ALK monoclonal antibody; VL SEQ ID NO: 409, VH SEQ ID NO: 410 (antibody, V domains shown)
VH: DVKLVESGEGLVKPGGSLKLSCAASGFTFSSYAMSWVRQTPEKRLEWVTYISSGGDYIYYADTVKGRFTISRDNARNTLYLQMSSLKSEDTAMYYCTRERIWLRRFFDVWGTGTTVTVSS
VL: DIVMTQSQKFMSTSVGDRVSITCKASQNVGTAVAWYQLKPGQSPKLLIYSASNRFTGVPDRFTGSGSGTDFTLTISNMQSEDLADYFCQQYSSYPLTFGSGTKLEIKR
modifications: VH domain - Ab327; VL domain - Ab327

Experiments:
NB1 cells [1] = experiment: Crizotinib titration and co-titration with ALK antibodies, killing of NB1 cells; type: cell-based, human; conditions: for effect on the anti-proliferative effect of crizotinib: co-titration of crizotinib with the antibody
[2] = tested on: ALK (basal phosphorylation in NB1 cells); experiment: Western blot of ALK phosphorylation in NB1 cells; type: cell-based, human; conditions: for ALK phosphorylation: effect in words
Experimental: Lysed cells were subjected to SDS-PAGE, transferred to nitrocellulose and immunoblotted with antibodies against total, and phospho-specific ALK, AKT, and MAPK. FIG. 4B depicts an ELISA of NB1 cells grown in media with reduced serum and treated with 30-100 nM of each antibody for 1-2 hours. Cell lysates were incubated on ELISA plates with an anti-ALK antibody, followed by incubation with a pan phosphotyrosine antibody coupled to HRP.
Cell lysates were subjected to SDS-PAGE and transferred to nitrocellulose. Immunoblotting was performed with antibodies against total, and phospho-specific ALK, AKT, and MAPK (purchased from Cell Signaling and utilized per manufacturer's instructions). HRP (horse radish peroxidase)-conjugated secondary antibodies (Thermo Scientific, Waltham, Mass.) were used along with Supersignal West Pico Chemiluminescent Substrate (Thermo Scientific, Waltham, Mass.) to image blots.
Anti-ALK monoclonal antibodies generated in Example 1 were evaluated via Western blotting for their ability to activate or inhibit basal levels of ALK phosphorylation in NB1 cells (FIG. 4A). A subset of ALK antibodies stimulated ALK tyrosine phosphorylation and a different subset of antibodies inhibited basal levels of ALK phosphorylation. See also Table 18, below. […] That is, ALK antibodies that stimulated ALK tyrosine phosphorylation increased MAPK and AKT phosphorylation, whereas ALK antibodies that inhibited ALK tyrosine phosphorylation decreased basal levels of MAPK and AKT phosphorylation (FIG. 4A). Similar results were obtained in ELISA-based ALK phosphorylation assays from lysates of NB1 cells treated with ALK antibodies (FIG. 4B).

[3] = molecular target: murine ALK (purified mouse ALK antigen) (Mus musculus, UniProt P97793); experiment: Mouse ALK cross-reactivity, solid-state ELISA; type: binding; parameters: key: − none; + weak; ++ moderate; +++ strong; conditions: cross-reactivity with murine ALK
Experimental: Purified mAbs were evaluated for their ability to bind murine ALK by solid-state ELISA, or flow cytometry on Neuro-2a cells that express low levels of endogenous murine ALK. […]

[4] = tested on: ALK (total protein levels in NB1 cells); experiment: ALK turnover (total protein levels) by Western blot, 24 hour treatment of NB1 cells; type: cell-based, human; parameters: key: − none; + weak; ++ moderate; +++ strong
Text: FIG. 5 depicts a Western blot of a panel of ALK antibodies.
See also Table 18, below.

[5] = molecular target: C-terminal region of human ALK ECD (T637-S1038) (Homo sapiens, UniProt Q9UM73); experiment: Competitive binding assay (epitope binning) by flow cytometry; conditions: antibodies to the C-terminal region
Experimental: Antibodies that bind to the C-terminal region of human ALK ECD (T637-S1038) were further characterized using a competitive binding assay. A pairwise matrix approach was used whereby each antibody was fluorescently labeled and tested for its ability to bind to ALK-expressing cells pre-incubated with an unlabeled antibody. The ability of both antibodies to bind the C-terminal domain simultaneously was tested via flow cytometry. If both antibodies bound simultaneously, they were put into different bins and considered to belong to a separate epitope class.

[6] = molecular target: T1, cell surface mALK on Neuro2a cells (Mus musculus, UniProt P97793); experiment: KD of humanized antibodies on Neuro2a (mouse) cells; type: binding; conditions: FACS, mean
T1 construct: Neuro-2a cells that express low levels of endogenous murine ALK; endogenous in cells; host or cells: Neuro-2a (Neuro2a) mouse neuroblastoma cells
Experimental: (§1) Amino acid residues that differ between rat ALK and mouse ALK are boxed. KD values for both NB1 (human) cells and Neuro2a (mouse) cells were also determined.

[7] = tested on: ALK on the surface of NB1 cells; experiment: KD determination by flow cytometry on NB1 cells; type: binding; conditions: NB1 (human) cells, FACS, mean
Experimental: FIG. 3 depicts the apparent affinities (KD) of ALK antibodies for ALK expression on the surface of NB1 cells. KD was determined by flow cytometry. Titration of each antibody on NB1 cells for 2-4 hours at 4° C. was followed by incubation with a fluorescently-labeled secondary antibody. The normalized mean fluorescent intensity […] shown as “% Max binding” was plotted as a function of antibody concentration.
Flow cytometry was utilized to measure the affinity at steady state (KD) with which different ALK antibodies bind to ALK on the surface of NB1 cells (FIG. 3). Titration of each antibody on NB1 cells for 2-4 hours at 4° C. was followed by incubation with a fluorescently-labeled secondary antibody. The normalized mean fluorescent intensity (MFI) shown as “% Max binding” was plotted as a function of antibody concentration. The data were fit to a one site binding isotherm using GraphPad Prism, from which affinity values were derived.
as §1

[8] = molecular target: human ALK (hALK, purified ALK protein) (Homo sapiens, UniProt Q9UM73); experiment: Monovalent affinity of humanized antibodies, BLitz System, human ALK; type: binding; conditions: for Kd: BLitz, purified ALK protein at 70 μg/mL, single binding site fit, antibody by plate position of Table 19; for potency estimated from few doses: single dose kinetics
Experimental: The humanized ALK antibodies designed in Example 1 were tested for monovalent affinity, wherein the kinetic data are fit to a single binding site equation to obtain relative affinity values.
(§2) Kinetic measurements of the monovalent affinity of the 96 humanized ALK antibody variants (Ab351-Ab446) were collected. Affinity ranking was performed using a BLitz® System (ForteBio, Menlo Park, Calif.). Humanized anti-ALK antibodies were immobilized at 0.5 mg/mL using Protein A tips. Once baseline stability was ensured, purified ALK proteins at 70 μg/mL were added. The resulting kinetic data were fit to a single binding site equation, from which the quoted monovalent KD values were derived.
as §1

mouse ALK (mALK) = molecular target: T2, mouse ALK (mALK) (Mus musculus, UniProt P97793); experiment: Monovalent affinity of humanized antibodies, BLitz System, mouse ALK; type: binding; conditions: single dose kinetics
T2 construct: mouse ALK (mALK)
Experimental: as §2, §1

[9] = molecular target: T3, total ALK and phosphorylated ALK in tumor homogenates (Homo sapiens, UniProt Q9UM73, F1174L); experiment: Western blot of tumor homogenates from the PDX model; type: in vivo, mouse; conditions: tumors harvested 72 hours after the second dose, vs control IgG1
T3 construct: Western blot analysis of homogenates of tumors harvested 72 hours after the second dose; from tissue; host or cells: patient-derived (PDX) neuroblastoma tumors grown in mice
Text: (§3) FIGS. 8A-B depict the in vivo antitumor activity of the Ab326 anti-ALK antibody in a patient-derived (PDX) neuroblastoma ALK F1174L tumor model compared with control IgG1 (A) and a western blot of tumor homogenates harvested from the patient-derived tumor model showing relative levels of total ALK and phosphorylated ALK in Ab326-treated and control IgG1-treated mice (B). GAPDH is included in the western blot of FIG. 8B as a control for protein level.
(§4) The effect of Ab326, generated in Example 1, on the patient-derived NB tumor mouse model was consistent with its inhibitory effect on phosphorylation of ALK and downstream signaling (FIG. 8A). Tumor volume was reduced over a two-week period in comparison with a control IgG1 antibody.

[10] = tested on: patient-derived (PDX) neuroblastoma ALK F1174L tumor; experiment: Patient-derived (PDX) neuroblastoma ALK F1174L tumor model; type: in vivo, mouse; conditions: two weekly intraperitoneal doses at 10 mg/kg, two-week period, in comparison with control IgG1
Text: as §3
Patient-derived (PDX) neuroblastoma tumor model mice were produced. […] Mice received two weekly intraperitoneal doses of Ab326 or a control IgG1 at 10 mg/kg.
as §4

NB1 cells [11] = experiment: NB1 cell morphology; type: cell-based, human; conditions: NB1 cells treated with antibody
Text: By contrast, treatment with Ab324, an ALK agonist, caused the cells to spread out.

Chain of human ALK (hALK, purified ALK protein) (Q9UM73 with tags, fused parts or gaps): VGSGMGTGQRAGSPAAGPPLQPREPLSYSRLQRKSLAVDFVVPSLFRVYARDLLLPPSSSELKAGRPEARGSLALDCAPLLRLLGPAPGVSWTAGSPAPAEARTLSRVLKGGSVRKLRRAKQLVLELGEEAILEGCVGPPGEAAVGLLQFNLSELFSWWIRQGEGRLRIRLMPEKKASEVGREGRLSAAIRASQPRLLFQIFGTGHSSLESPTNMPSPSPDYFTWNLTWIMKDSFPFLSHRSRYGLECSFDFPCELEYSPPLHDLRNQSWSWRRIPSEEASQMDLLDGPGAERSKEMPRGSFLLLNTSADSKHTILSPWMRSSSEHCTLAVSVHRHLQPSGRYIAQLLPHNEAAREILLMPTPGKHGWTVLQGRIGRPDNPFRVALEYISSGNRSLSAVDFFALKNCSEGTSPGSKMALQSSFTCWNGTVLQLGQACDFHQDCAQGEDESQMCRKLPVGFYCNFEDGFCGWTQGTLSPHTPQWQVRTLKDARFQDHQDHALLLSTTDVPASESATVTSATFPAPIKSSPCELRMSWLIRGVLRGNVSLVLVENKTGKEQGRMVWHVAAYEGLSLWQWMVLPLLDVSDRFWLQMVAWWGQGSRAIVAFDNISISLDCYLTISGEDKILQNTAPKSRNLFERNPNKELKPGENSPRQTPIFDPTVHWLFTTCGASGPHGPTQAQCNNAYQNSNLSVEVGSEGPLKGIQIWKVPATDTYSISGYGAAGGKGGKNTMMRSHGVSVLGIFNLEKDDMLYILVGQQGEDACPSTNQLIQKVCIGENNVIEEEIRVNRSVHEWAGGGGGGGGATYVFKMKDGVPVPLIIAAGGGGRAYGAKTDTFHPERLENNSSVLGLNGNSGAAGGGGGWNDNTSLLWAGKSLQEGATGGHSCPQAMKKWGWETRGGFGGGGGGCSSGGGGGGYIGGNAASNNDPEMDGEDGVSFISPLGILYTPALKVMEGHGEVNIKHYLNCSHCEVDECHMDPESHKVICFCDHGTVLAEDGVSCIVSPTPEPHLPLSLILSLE
T1 sequence (P97793 19-1621): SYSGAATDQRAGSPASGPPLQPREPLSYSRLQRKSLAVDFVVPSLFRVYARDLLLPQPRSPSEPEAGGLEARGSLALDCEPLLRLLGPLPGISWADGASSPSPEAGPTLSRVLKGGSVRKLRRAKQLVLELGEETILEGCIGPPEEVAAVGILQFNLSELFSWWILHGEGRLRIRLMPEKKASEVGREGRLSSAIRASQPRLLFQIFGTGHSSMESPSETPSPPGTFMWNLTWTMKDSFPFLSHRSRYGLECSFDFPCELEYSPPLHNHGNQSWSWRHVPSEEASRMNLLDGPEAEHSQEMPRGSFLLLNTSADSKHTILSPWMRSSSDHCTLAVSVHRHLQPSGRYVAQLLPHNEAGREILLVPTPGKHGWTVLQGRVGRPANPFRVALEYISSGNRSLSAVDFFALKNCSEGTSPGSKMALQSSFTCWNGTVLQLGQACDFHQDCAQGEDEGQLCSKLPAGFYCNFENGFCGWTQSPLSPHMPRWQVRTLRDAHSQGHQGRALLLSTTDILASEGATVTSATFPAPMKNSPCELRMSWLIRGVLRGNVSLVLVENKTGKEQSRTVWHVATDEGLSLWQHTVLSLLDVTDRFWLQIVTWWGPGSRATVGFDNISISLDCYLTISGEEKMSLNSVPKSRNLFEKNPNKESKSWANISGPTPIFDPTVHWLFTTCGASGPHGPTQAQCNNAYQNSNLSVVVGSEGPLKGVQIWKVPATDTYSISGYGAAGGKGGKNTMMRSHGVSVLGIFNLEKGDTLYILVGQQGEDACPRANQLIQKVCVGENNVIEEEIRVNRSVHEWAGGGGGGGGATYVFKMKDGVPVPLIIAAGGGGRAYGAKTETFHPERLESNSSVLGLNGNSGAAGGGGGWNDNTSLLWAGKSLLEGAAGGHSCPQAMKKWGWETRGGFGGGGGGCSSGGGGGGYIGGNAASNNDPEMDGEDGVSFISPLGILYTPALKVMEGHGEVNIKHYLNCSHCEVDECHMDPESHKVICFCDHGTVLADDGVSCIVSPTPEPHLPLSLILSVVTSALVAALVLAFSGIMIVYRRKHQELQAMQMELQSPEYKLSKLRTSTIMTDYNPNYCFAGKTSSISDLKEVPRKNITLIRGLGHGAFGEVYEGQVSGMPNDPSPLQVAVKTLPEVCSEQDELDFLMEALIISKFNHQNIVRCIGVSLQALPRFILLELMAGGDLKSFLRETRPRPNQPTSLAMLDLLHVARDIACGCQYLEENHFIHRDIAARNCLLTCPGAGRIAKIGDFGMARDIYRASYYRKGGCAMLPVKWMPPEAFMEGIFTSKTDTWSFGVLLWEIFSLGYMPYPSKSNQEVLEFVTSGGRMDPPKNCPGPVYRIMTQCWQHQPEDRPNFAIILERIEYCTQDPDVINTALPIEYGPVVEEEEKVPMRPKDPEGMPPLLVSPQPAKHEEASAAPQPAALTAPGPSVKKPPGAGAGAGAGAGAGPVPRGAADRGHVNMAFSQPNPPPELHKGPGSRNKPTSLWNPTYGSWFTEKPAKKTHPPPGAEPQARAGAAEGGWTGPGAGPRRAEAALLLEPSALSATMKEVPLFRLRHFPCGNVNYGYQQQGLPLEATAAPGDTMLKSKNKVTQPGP
Chain of murine ALK (purified mouse ALK antigen) (P97793 19-1042 limits assumed): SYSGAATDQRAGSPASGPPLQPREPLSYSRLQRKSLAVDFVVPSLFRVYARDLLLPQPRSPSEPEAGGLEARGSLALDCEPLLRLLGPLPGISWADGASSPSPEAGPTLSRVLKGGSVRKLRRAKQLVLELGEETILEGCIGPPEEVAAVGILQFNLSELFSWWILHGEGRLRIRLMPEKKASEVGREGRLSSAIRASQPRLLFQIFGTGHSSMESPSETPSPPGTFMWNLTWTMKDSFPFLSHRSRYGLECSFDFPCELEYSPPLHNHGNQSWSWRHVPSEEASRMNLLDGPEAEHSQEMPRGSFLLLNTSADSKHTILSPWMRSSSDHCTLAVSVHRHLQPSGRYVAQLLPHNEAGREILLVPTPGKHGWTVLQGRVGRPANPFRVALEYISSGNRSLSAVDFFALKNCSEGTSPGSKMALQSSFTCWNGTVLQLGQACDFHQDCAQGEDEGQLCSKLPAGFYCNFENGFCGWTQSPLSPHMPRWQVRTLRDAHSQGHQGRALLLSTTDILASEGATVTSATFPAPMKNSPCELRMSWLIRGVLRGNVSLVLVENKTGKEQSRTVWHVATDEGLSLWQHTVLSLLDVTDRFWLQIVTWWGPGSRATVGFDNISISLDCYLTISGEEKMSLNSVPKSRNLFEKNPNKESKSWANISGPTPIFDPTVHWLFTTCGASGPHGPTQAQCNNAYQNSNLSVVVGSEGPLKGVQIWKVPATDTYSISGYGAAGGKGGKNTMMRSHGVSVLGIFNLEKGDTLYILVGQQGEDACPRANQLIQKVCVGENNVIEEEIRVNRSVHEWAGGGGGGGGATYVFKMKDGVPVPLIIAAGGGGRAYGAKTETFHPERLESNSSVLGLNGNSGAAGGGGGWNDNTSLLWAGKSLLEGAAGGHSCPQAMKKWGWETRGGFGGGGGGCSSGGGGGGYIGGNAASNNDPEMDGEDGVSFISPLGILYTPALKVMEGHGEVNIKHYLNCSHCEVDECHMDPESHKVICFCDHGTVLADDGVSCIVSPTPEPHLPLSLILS
T2 sequence (P97793 19-1042): as the sequence (P97793 19-1042 limits assumed) above

Molecule | effect on NB1 cell death caused by crizotinib (NB1 cells [1]; constant amount of antibody added to crizotinib titration) | effect on ALK activity (ALK inhibitory or ALK agonistic antibody) [2] | ALK phosphorylation [2] | mouse ALK binding [3] | ALK turnover [4] | Bin/Domain (bin) [5] | Kd [6] | Kd [7] | Kd [8] | potency estimated from few doses [8] | potency estimated from few doses (mouse ALK (mALK)) | phosphorylated ALK in tumor homogenates [9] | total ALK in tumor homogenates [9] | tumor volume [10] | effect on the anti-proliferative effect of crizotinib (NB1 cells [1]) | NB1 cell morphology (NB1 cells [11])
B1 | partially rescued | agonistic | weak agonist | +++ | ++ | 1 |  |  |  |  |  |  |  |  |  | 
B2 |  |  |  |  |  |  | 0.0074 µM | 0.0013 µM | 0.0815 µM | 0.059 µM |  |  |  |  |  | 
B3 |  |  |  |  |  |  | 0.00415 µM | 0.00073 µM | 0.0942 µM | 0.08 µM | 0.12 µM |  |  |  |  | 
B4 |  |  |  |  |  |  | 0.0028 µM | 0.0015 µM | 0.0876 µM | 0.071 µM | 0.147 µM |  |  |  |  | 
B5 |  | inhibitory | inhibitor | +++ | − | 2 | 0.00058 µM | 0.00094 µM |  |  |  | reduction | reduction | reduced | enhanced | rounded morphology
B6 |  | inhibitory | inhibitor | +++ | ++ | 2 |  |  |  |  |  |  |  |  | enhanced | 
